Laboratory results: publication PMC9761383 (2022)
Each block holds one molecule with its values, some of them ahead of it.

Experiments:
[1] = biological target: collagen α1α1α2(IV) purified from conditioned culture medium of WT PFHR9 cells (mouse (endogenous in PFHR9)); test: rotary shadow electron microscopy; purified collagen α1α1α2(IV) (about 100 μg/ml) in 0.2 M acetic acid, 70% glycerol, sprayed on mica, carbon/platinum shadowed; molecules counted (WT n = 690, LH3 KO n = 295); hexamers = two heterotrimers, dodecamers = four heterotrimers
[2] = biological target: collagen α1α1α2(IV) purified from conditioned culture medium of LH3 KO PFHR9 cells (mouse (endogenous in PFHR9)); test: as above
[3] = biological target: T1, collagen α1α1α2(IV) purified from conditioned culture medium of WT PFHR9 cells (mouse (endogenous in PFHR9), hydroxylysines, almost fully modified to glucosyl galactosyl Hyl; 4-hydroxyproline; 3-hydroxyproline | hydroxylysines, almost fully modified to glucosyl galactosyl Hyl; 4-hydroxyproline; …); test: SPR
T1 sequence (P02463 28-1669, chain 1 of 2): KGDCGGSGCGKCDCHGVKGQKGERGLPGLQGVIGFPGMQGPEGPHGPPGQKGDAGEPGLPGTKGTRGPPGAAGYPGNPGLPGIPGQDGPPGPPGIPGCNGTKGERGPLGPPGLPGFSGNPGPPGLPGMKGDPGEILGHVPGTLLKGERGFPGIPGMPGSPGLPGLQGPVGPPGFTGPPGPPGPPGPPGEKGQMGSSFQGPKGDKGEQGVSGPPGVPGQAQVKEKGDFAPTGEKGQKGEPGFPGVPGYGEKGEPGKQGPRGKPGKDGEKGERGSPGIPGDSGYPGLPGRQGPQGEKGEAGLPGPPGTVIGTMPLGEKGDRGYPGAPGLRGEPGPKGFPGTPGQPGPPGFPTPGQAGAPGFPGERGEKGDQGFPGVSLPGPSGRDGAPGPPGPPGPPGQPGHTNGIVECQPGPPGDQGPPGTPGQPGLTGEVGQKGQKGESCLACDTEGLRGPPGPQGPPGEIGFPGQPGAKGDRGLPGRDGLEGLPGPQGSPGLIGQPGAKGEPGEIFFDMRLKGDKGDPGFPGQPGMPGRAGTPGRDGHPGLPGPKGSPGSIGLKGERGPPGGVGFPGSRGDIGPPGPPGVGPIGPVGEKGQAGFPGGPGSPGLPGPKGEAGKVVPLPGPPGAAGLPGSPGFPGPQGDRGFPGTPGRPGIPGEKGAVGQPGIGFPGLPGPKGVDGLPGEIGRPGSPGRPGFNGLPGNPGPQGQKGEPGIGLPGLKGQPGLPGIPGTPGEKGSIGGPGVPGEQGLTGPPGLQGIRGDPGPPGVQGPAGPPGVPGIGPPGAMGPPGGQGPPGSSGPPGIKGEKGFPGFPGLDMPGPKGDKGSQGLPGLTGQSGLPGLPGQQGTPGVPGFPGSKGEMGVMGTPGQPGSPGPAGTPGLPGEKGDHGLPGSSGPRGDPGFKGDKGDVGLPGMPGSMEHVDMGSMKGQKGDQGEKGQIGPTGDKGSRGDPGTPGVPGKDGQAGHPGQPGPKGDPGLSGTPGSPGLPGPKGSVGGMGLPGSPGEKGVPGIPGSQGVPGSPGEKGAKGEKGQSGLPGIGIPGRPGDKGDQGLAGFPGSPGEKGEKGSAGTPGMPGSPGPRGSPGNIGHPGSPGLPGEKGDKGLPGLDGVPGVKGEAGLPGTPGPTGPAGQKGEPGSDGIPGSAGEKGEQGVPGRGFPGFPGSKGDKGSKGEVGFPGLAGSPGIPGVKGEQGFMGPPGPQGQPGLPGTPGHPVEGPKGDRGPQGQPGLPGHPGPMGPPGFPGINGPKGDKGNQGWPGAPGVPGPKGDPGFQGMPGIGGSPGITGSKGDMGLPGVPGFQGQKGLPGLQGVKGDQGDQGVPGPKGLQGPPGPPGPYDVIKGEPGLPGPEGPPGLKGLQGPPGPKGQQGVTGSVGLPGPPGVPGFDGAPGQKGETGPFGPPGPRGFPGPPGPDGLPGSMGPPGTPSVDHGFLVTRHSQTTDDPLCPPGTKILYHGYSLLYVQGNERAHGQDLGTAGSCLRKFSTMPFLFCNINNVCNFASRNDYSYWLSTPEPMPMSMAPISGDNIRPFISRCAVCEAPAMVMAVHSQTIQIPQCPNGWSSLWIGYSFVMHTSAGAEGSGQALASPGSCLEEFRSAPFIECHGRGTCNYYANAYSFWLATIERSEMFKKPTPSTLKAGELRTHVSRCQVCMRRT
T1 sequence (P08122 26-1707, chain 2 of 2, further chain): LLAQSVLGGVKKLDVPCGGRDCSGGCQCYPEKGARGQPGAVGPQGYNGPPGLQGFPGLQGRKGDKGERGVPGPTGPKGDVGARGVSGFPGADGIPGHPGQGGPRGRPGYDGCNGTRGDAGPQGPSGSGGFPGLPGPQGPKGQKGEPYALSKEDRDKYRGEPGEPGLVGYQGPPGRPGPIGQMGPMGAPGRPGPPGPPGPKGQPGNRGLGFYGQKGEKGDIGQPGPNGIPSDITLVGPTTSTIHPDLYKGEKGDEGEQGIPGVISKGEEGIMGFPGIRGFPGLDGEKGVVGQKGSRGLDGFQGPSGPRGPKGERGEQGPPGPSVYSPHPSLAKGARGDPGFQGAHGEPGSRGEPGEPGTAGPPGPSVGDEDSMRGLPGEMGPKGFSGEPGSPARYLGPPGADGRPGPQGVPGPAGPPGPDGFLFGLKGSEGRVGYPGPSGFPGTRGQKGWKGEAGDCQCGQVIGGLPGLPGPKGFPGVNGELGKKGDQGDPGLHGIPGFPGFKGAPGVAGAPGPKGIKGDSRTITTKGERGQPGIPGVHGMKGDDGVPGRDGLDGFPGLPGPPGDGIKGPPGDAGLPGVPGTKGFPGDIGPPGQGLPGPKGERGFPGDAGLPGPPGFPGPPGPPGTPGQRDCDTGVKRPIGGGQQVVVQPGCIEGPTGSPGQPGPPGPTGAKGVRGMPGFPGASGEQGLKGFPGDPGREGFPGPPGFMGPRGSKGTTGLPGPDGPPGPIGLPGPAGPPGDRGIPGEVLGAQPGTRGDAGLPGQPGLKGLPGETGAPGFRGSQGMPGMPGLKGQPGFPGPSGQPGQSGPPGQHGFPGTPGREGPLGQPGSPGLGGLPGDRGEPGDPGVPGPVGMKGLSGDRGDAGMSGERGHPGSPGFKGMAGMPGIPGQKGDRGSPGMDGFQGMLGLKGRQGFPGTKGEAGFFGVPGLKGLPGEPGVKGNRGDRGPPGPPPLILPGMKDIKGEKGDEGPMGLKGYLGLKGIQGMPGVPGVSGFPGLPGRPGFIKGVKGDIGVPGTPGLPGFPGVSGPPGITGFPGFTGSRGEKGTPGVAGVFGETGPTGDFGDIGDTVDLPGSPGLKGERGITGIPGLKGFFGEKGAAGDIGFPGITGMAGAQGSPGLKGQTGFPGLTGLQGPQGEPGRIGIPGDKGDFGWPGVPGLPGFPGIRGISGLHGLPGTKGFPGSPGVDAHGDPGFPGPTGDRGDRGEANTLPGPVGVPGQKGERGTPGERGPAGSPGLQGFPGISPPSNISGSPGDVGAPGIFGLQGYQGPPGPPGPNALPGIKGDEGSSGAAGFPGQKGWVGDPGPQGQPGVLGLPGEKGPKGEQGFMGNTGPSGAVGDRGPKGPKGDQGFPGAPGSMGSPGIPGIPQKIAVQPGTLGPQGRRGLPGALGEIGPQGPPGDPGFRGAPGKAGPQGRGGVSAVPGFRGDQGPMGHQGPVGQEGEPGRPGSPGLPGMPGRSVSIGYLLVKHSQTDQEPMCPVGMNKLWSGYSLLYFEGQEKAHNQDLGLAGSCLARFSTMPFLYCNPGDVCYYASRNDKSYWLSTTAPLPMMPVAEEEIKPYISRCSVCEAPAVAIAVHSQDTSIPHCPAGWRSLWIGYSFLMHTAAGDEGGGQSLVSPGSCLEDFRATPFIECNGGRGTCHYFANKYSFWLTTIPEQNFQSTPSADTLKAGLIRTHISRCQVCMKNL

[4] = biological target: T2, collagen α1α1α2(IV) purified from conditioned culture medium of LH3 KO PFHR9 cells (mouse (endogenous in PFHR9), more unmodified lysines (significantly fewer hydroxylysines)); high occupancy of galactosyl Hyl but not glucosyl galactosyl Hyl; prolyl 4 hydroxylation reduced | more unmodified lysines (significantly …); test: SPR
T2 sequence (P02463 28-1669, chain 1 of 2): as the sequence (P02463 28-1669, chain 1 of 2) above
T2 sequence (P08122 26-1707, chain 2 of 2, further chain): as the sequence (P08122 26-1707, chain 2 of 2, further chain) above

[5] = biological target: T1, collagen α1α1α2(IV) purified from …; test: SPR; remark: listed apart in the source
[6] = biological target: T2, collagen α1α1α2(IV) purified from …; test: SPR; remark: listed apart in the source

percent of molecules seen as dodecamers (four heterotrimers) [1]: 9% | percent of molecules seen as hexamers (two heterotrimers) [1]: 8.5%
Molecule: collagen α1α1α2(IV) purified from conditioned culture medium of WT PFHR9 cells (complex)

percent of molecules seen as shortened hexamers (two heterotrimers) [2]: 7.8%
Molecule: collagen α1α1α2(IV) purified from conditioned culture medium of LH3 KO PFHR9 cells (complex)

Kd [3]: 17.9 nM | Kd [4]: 116 nM | koff [5]: 0.0226 s⁻¹ | koff [6]: 0.107 s⁻¹
B1: heat shock protein 47 (natural protein)
chain: VPSEDRKLSDKATTLADRSTTLAFNLYHAMAKDKNMENILLSPVVVASSLGLVSLGGKATTASQAKAVLSADKLNDDYVHSGLSELLNEVSNSTARNVTWKIGNRLYGPASINFADDFVKNSKKHYNYEHSKINFRDKRSALKSINEWAAQTTDGKLPEVTKDVEKTDGALIVNAMFFKPHWDEKFHHKMVDNRGFMVTRSYTVGVPMMHRTGLYNYYDDEAEKLQVVEMPLAHKLSSMIFIMPNHVEPLERVEKLLNREQLKTWASKMKKRSVAISLPKVVLEVSHDLQKHLADLGLTEAIDKTKADLSKISGKKDLYLSNVFHAAALEWDTDGNPYDADIYGREEMRNPKLFYADHPFIFMIKDSKTNSILFIGRLVRPKGDKMRDEL
